Measured values taken from article PMC9482650, “Quantitative fragmentomics allow affinity mapping of interactomes” (Nature Communications, 2022).

Tests used:
Test in all cases: holdup assay
Set-up in all cases: key: below the threshold = too weak to quantify, mostly under pKd 3.1 to 4
ARHGAP21, Q5T5U3 = target: T1, ARHGAP21, Q5T5U3
T1 sequence (Q5T5U3 45-169, limits assumed, looked up): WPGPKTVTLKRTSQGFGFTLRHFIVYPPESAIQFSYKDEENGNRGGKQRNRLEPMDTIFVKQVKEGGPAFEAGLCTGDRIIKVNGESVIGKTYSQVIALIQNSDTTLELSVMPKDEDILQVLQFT

FRMPD3, Q5JV73 = target: FRMPD3, Q5JV73
NHERF4_1, Q86UT5-2 = target: NHERF4_1, Q86UT5-2
DLG2_2, Q15700 = target: DLG2_2, Q15700
Inadl_3, Q8NI35 = target: Inadl_3, Q8NI35
MAGI2_6, Q86UL8 = target: MAGI2_6, Q86UL8
Inadl_8, Q8NI35 = target: Inadl_8, Q8NI35
CARD11, Q9BXL7 = target: T2, CARD11, Q9BXL7
T2 sequence (Q9BXL7 662-765, limits assumed, looked up): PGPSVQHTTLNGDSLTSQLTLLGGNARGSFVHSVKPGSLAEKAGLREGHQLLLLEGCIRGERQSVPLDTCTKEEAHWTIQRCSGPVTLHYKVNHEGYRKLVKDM

LDB3, O75112 = target: LDB3, O75112
SCRIB_1, Q14160 = target: SCRIB_1, Q14160
RADIL, Q96JH8 = target: T3, RADIL, Q96JH8
T3 sequence (Q96JH8 971-1071, limits assumed, looked up): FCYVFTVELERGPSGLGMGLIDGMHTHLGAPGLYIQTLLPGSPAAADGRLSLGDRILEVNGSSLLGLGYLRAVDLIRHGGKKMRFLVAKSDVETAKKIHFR

PDZRN3_1, Q9UPQ7 = target: T4, PDZRN3_1, Q9UPQ7
T4 sequence (Q9UPQ7 244-349, limits assumed, looked up): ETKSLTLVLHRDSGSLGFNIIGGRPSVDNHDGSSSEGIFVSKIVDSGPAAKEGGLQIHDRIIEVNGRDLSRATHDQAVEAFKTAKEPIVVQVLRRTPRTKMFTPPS

PARD3B_1, Q8TEW8 = target: T5, PARD3B_1, Q8TEW8
T5 sequence (Q8TEW8 196-299, limits assumed, looked up): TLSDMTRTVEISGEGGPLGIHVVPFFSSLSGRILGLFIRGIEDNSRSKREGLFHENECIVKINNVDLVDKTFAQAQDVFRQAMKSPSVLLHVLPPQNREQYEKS

GRASP, Q7Z6J2 = target: GRASP, Q7Z6J2
PTPN3, P26045 = target: PTPN3, P26045
GIPC2, Q8TF65 = target: GIPC2, Q8TF65
LIMK2, P53671 = target: LIMK2, P53671
MAST2, Q6P0Q8 = target: MAST2, Q6P0Q8
ARHGEF12, Q9NZN5-2 = target: ARHGEF12, Q9NZN5-2
MAGI2_5, Q86UL8 = target: MAGI2_5, Q86UL8
LIN7A, O14910 = target: T6, LIN7A, O14910
T6 sequence (O14910 103-200, limits assumed, looked up): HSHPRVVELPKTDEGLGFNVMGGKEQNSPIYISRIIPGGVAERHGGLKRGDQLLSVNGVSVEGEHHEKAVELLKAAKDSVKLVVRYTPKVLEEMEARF

MPP2, Q14168 = target: T7, MPP2, Q14168
T7 sequence (Q14168 180-250, limits assumed, looked up): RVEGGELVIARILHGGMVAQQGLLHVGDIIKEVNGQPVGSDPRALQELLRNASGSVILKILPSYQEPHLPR

SNX27, Q96L92 = target: SNX27, Q96L92
LNX2_3, Q8N448 = target: T8, LNX2_3, Q8N448
T8 sequence (Q8N448 463-564, limits assumed, looked up): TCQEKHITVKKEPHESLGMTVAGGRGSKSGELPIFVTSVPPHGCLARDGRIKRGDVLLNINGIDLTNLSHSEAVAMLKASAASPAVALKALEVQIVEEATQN

MAGI1_1, Q96QZ7 = target: MAGI1_1, Q96QZ7
Inadl_10, Q8NI35 = target: Inadl_10, Q8NI35
GRIP2_6, Q9C0E4 = target: GRIP2_6, Q9C0E4
DLG4_1, P78352 = target: DLG4_1, P78352
FRMPD1, Q5SYB0 = target: T9, FRMPD1, Q5SYB0
T9 sequence (Q5SYB0 52-145, limits assumed, looked up): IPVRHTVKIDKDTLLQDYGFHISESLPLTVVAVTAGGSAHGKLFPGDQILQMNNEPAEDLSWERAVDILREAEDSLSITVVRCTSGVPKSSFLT

[1] = plain residues with an end cap or a label only (N-terminal biotin on a linker: ado-ado)
[2] = plain residues with an end cap or a label only (N-terminal biotin on a linker: (peg)3)

FRMPD3, Q5JV73, sequence (Q5JV73 12-100): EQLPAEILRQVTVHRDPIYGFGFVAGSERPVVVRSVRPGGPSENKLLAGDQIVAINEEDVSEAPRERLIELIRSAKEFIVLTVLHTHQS
MAGI1_1, Q96QZ7, sequence (Q96QZ7 1-106): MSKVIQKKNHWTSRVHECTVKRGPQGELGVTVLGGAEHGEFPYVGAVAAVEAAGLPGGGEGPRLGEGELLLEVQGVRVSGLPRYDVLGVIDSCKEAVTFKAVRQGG
SCRIB_1, Q14160, sequence (Q14160 718-814): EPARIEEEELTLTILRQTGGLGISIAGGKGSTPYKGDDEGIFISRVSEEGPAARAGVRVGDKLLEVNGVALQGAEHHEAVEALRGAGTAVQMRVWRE
MAGI2_5, Q86UL8, sequence (Q86UL8 915-1017): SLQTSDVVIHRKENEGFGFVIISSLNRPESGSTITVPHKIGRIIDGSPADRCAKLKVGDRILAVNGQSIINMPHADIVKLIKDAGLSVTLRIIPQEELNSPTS
MAST2, Q6P0Q8, sequence (Q6P0Q8 1099-1202): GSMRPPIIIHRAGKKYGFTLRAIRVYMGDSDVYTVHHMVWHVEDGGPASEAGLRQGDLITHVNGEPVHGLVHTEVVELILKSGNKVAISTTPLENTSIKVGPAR
Inadl_3, Q8NI35, sequence (Q8NI35 359-469): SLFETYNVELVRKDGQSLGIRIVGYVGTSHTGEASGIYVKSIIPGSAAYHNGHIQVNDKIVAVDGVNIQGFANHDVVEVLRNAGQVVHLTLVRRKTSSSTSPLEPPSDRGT
MAGI2_6, Q86UL8, sequence (Q86UL8 1141-1229): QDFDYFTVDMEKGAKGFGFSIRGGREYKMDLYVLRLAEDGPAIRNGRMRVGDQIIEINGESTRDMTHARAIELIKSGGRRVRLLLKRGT
GIPC2, Q8TF65, sequence (Q8TF65 112-203): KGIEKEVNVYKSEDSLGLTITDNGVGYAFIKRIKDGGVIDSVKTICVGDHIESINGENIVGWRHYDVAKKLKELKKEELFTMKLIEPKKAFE
NHERF4_1, Q86UT5-2, sequence (Q86UT5 other isoform, or with tags, fused parts or gaps): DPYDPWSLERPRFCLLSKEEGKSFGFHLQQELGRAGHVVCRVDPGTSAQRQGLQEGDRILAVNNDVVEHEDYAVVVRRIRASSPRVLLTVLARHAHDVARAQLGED
DLG4_1, P78352, sequence (P78352 62-152): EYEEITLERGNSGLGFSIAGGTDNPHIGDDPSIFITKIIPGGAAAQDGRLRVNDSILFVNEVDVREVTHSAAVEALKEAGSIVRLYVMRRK
DLG2_2, Q15700, sequence (Q15700 189-283): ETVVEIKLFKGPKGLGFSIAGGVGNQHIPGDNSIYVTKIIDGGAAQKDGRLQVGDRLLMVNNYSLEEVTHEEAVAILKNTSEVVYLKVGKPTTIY
GRASP, Q7Z6J2, sequence (Q7Z6J2 96-193): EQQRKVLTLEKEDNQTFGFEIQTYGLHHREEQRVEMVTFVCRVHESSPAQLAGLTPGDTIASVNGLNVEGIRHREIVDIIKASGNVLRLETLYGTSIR
GRIP2_6, Q9C0E4, sequence (Q9C0E4 648-740): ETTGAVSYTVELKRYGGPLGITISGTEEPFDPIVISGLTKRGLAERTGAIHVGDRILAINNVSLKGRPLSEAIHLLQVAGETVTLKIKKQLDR
LIMK2, P53671, sequence (P53671 143-248): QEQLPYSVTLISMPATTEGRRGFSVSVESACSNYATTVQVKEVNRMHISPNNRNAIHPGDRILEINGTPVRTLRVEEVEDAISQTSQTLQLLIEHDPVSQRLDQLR
PTPN3, P26045, sequence (P26045 505-587): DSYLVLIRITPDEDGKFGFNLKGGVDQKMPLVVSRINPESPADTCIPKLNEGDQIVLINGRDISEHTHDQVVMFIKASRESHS
LDB3, O75112, sequence (O75112 1-94): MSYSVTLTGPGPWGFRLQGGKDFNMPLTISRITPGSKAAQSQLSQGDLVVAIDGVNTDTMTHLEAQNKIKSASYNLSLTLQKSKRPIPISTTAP
Inadl_8, Q8NI35, sequence (Q8NI35 1425-1530): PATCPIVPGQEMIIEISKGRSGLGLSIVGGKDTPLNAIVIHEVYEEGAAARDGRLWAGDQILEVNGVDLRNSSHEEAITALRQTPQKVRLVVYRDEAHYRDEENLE
Inadl_10, Q8NI35, sequence (Q8NI35 1673-1763): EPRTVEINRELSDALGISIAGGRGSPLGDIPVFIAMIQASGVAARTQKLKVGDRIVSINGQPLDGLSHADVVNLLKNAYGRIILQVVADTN
ARHGEF12, Q9NZN5-2, sequence (Q9NZN5 other isoform, or with tags, fused parts or gaps): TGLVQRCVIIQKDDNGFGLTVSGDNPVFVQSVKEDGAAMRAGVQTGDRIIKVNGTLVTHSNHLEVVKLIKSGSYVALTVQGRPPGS

In the case of LKDDELKTKL [SLCO1A2, P46721], the pKd (ARHGAP21, Q5T5U3; [1]) is reported as 3.91, the pKd (FRMPD3, Q5JV73; [1]) is reported as “below the threshold” and the pKd (NHERF4_1, Q86UT5-2; [1]) is reported as 3.91. For the same binder, the pKd (DLG2_2, Q15700; [1]) was “below the threshold”, the pKd (Inadl_3, Q8NI35; [1]) was “below the threshold” and the pKd (MAGI2_6, Q86UL8; [1]) was “below the threshold”. For the same binder, the pKd (Inadl_8, Q8NI35; [1]) was “below the threshold”, the pKd (CARD11, Q9BXL7; [1]) was “below the threshold” and the pKd (LDB3, O75112; [1]) was “below the threshold”. For the same binder, the pKd (SCRIB_1, Q14160; [1]) was “below the threshold”, the pKd (RADIL, Q96JH8; [1]) was “below the threshold” and the pKd (PDZRN3_1, Q9UPQ7; [1]) was “below the threshold”. The pKd (PARD3B_1, Q8TEW8; [1]) was 3.84, the pKd (GRASP, Q7Z6J2; [1]) was 4.37 and the pKd (PTPN3, P26045; [1]) was “below the threshold”. For the same binder, the pKd (GIPC2, Q8TF65; [1]) was “below the threshold”, the pKd (LIMK2, P53671; [1]) was “below the threshold” and the pKd (MAST2, Q6P0Q8; [1]) was 5.28. For the same binder, the pKd (ARHGEF12, Q9NZN5-2; [1]) was 4.62, the pKd (MAGI2_5, Q86UL8; [1]) was 3.75 and the pKd (LIN7A, O14910; [1]) was “below the threshold”. The pKd (MPP2, Q14168; [1]) was “below the threshold”, the pKd (SNX27, Q96L92; [1]) was 3.8 and the pKd (LNX2_3, Q8N448; [1]) was “below the threshold”. For the same binder, the pKd (MAGI1_1, Q96QZ7; [1]) was “below the threshold”, the pKd (Inadl_10, Q8NI35; [1]) was “below the threshold” and the pKd (GRIP2_6, Q9C0E4; [1]) was “below the threshold”. For the same binder, the pKd (DLG4_1, P78352; [1]) was “below the threshold” and the pKd (FRMPD1, Q5SYB0; [1]) was “below the threshold”.

With NTANRRTTPV [CACNG2, Q9Y698] the pKd (ARHGAP21, Q5T5U3; [1]) was 3.86, the pKd (FRMPD3, Q5JV73; [1]) was “below the threshold” and the pKd (NHERF4_1, Q86UT5-2; [1]) was “below the threshold”. The pKd (DLG2_2, Q15700; [1]) was 4.53, the pKd (Inadl_3, Q8NI35; [1]) was “below the threshold” and the pKd (MAGI2_6, Q86UL8; [1]) was 3.53. The pKd (Inadl_8, Q8NI35; [1]) was 4.23, the pKd (CARD11, Q9BXL7; [1]) was “below the threshold” and the pKd (LDB3, O75112; [1]) was “below the threshold”. The pKd (SCRIB_1, Q14160; [1]) was 3.49, the pKd (RADIL, Q96JH8; [1]) was “below the threshold” and the pKd (PDZRN3_1, Q9UPQ7; [1]) was 4.23. The pKd (PARD3B_1, Q8TEW8; [1]) was “below the threshold”, the pKd (GRASP, Q7Z6J2; [1]) was 4.18 and the pKd (PTPN3, P26045; [1]) was 4.52. For the same binder, the pKd (GIPC2, Q8TF65; [1]) was “below the threshold”, the pKd (LIMK2, P53671; [1]) was “below the threshold” and the pKd (MAST2, Q6P0Q8; [1]) was 4.52. The pKd (ARHGEF12, Q9NZN5-2; [1]) was 3.93, the pKd (MAGI2_5, Q86UL8; [1]) was “below the threshold” and the pKd (LIN7A, O14910; [1]) was “below the threshold”. The pKd (MPP2, Q14168; [1]) was “below the threshold”, the pKd (SNX27, Q96L92; [1]) was 4.99 and the pKd (LNX2_3, Q8N448; [1]) was “below the threshold”. For the same binder, the pKd (MAGI1_1, Q96QZ7; [1]) was “below the threshold”, the pKd (Inadl_10, Q8NI35; [1]) was “below the threshold” and the pKd (GRIP2_6, Q9C0E4; [1]) was “below the threshold”. For the same binder, the pKd (DLG4_1, P78352; [1]) was 4.5 and the pKd (FRMPD1, Q5SYB0; [1]) was “below the threshold”.

In the case of AEASVACSLC [PTGIR, P43119], the pKd (ARHGAP21, Q5T5U3; [1]) is reported as “below the threshold”, the pKd (FRMPD3, Q5JV73; [1]) is reported as “below the threshold” and the pKd (NHERF4_1, Q86UT5-2; [1]) is reported as 4.54. The pKd (DLG2_2, Q15700; [1]) was “below the threshold”, the pKd (Inadl_3, Q8NI35; [1]) was “below the threshold” and the pKd (MAGI2_6, Q86UL8; [1]) was “below the threshold”. The pKd (Inadl_8, Q8NI35; [1]) was 3.77, the pKd (CARD11, Q9BXL7; [1]) was “below the threshold” and the pKd (LDB3, O75112; [1]) was “below the threshold”. The pKd (SCRIB_1, Q14160; [1]) was “below the threshold”, the pKd (RADIL, Q96JH8; [1]) was 3.94 and the pKd (PDZRN3_1, Q9UPQ7; [1]) was “below the threshold”. The pKd (PARD3B_1, Q8TEW8; [1]) was “below the threshold”, the pKd (GRASP, Q7Z6J2; [1]) was 4.43 and the pKd (PTPN3, P26045; [1]) was 3.54. The pKd (GIPC2, Q8TF65; [1]) was 3.75, the pKd (LIMK2, P53671; [1]) was “below the threshold” and the pKd (MAST2, Q6P0Q8; [1]) was 4.32. The pKd (ARHGEF12, Q9NZN5-2; [1]) was 3.53, the pKd (MAGI2_5, Q86UL8; [1]) was 4.98 and the pKd (LIN7A, O14910; [1]) was “below the threshold”. The pKd (MPP2, Q14168; [1]) was “below the threshold”, the pKd (SNX27, Q96L92; [1]) was 4.4 and the pKd (LNX2_3, Q8N448; [1]) was “below the threshold”. For the same binder, the pKd (MAGI1_1, Q96QZ7; [1]) was “below the threshold”, the pKd (Inadl_10, Q8NI35; [1]) was “below the threshold” and the pKd (GRIP2_6, Q9C0E4; [1]) was “below the threshold”. For the same binder, the pKd (DLG4_1, P78352; [1]) was “below the threshold” and the pKd (FRMPD1, Q5SYB0; [1]) was “below the threshold”.

RRRRSQSRESQC [HBV-HBc, P03193] was tested, and the pKd (ARHGAP21, Q5T5U3; [2]) was “below the threshold”, the pKd (FRMPD3, Q5JV73; [2]) was “below the threshold” and the pKd (NHERF4_1, Q86UT5-2; [2]) was 3.86. For the same binder, the pKd (DLG2_2, Q15700; [2]) was 4.22, the pKd (Inadl_3, Q8NI35; [2]) was “below the threshold” and the pKd (MAGI2_6, Q86UL8; [2]) was “below the threshold”. For the same binder, the pKd (Inadl_8, Q8NI35; [2]) was 3.58, the pKd (CARD11, Q9BXL7; [2]) was “below the threshold” and the pKd (LDB3, O75112; [2]) was “below the threshold”. For the same binder, the pKd (SCRIB_1, Q14160; [2]) was 4.48, the pKd (RADIL, Q96JH8; [2]) was “below the threshold” and the pKd (PDZRN3_1, Q9UPQ7; [2]) was 3.89. For the same binder, the pKd (PARD3B_1, Q8TEW8; [2]) was “below the threshold”, the pKd (GRASP, Q7Z6J2; [2]) was “below the threshold” and the pKd (PTPN3, P26045; [2]) was 4.7. For the same binder, the pKd (GIPC2, Q8TF65; [2]) was 4.39, the pKd (LIMK2, P53671; [2]) was “below the threshold” and the pKd (MAST2, Q6P0Q8; [2]) was 4.26. For the same binder, the pKd (ARHGEF12, Q9NZN5-2; [2]) was “below the threshold”, the pKd (MAGI2_5, Q86UL8; [2]) was 3.89 and the pKd (LIN7A, O14910; [2]) was “below the threshold”. For the same binder, the pKd (MPP2, Q14168; [2]) was “below the threshold”, the pKd (SNX27, Q96L92; [2]) was 4.76 and the pKd (LNX2_3, Q8N448; [2]) was “below the threshold”. The pKd (MAGI1_1, Q96QZ7; [2]) was “below the threshold”, the pKd (Inadl_10, Q8NI35; [2]) was “below the threshold” and the pKd (GRIP2_6, Q9C0E4; [2]) was “below the threshold”. The pKd (DLG4_1, P78352; [2]) was 4.31 and the pKd (FRMPD1, Q5SYB0; [2]) was “below the threshold”.
